The results in this text go back to patent US20120275997A1 (published 2012).

For experiment [1], the target named is human CD151 protein (human) (UniProt P48509). Kind of experiment: flow cytometry on PC3 cells, undiluted hybridoma supernatant. Background: A flow cytometer gives signals particle by particle.
For experiment [2] the target is unchanged. The experiment is described as follows: flow cytometry on BxPC3 cells, antibody at 10 ug/ml.
Experiment [3] shares this target. Kind of experiment: flow cytometry on DU145 cells, antibody at 10 ug/ml.
Experiment [4] has the same target. Kind of experiment: flow cytometry on A549 cells, antibody at 10 ug/ml.
Experiment [5] has the same target. The experiment is described as follows: flow cytometry on NIH3T3-CD151 cells, antibody at 10 ug/ml.
The target of experiment [6] is T1, recombinant large extracellular loop EC2 of human CD151 (human, UniProt P48509 113-221, limits assumed).
T1 construct: also called recombinant EC2 loop; extracellular loop 2
T1 sequence (looked up): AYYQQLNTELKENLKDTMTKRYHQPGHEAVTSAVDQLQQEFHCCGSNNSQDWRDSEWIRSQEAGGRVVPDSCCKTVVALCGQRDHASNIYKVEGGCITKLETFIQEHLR
Kind of experiment: competition ELISA on recombinant EC2; competitor murine 203B6 at 80 ng/ml, detected with anti-mouse IgG. The protocol:
(§1) Cross-competition experiments were further performed by ELISA to evaluate the ability of the chimeric antibodies c214B2[IgG1] and c203B6[IgG1] to inhibit the binding of their corresponding murine forms to the recombinant EC2 loop. Briefly, 96-well ELISA plates were coated with recombinant EC2 at 5 μg/ml in PBS overnight at 4° C. Murine Mabs 203B6 and 214B2 at 80 ng/ml were further incubated in the absence or in the presence of increasing concentrations of their corresponding chimeric antibody forms, ranging from 0.01 to 20 μg/ml, for 1 h at 37° C. For control experiments, no murine antibody was added. Horseradish peroxidase-conjugated polyclonal goat anti-mouse IgG was added at a 1/5000 dilution in PBS and incubated for 1 h at 37° C. After incubation with the peroxidase substrate TMB for 10 min at room temperature, the reaction was stopped with 1 M sulfuric acid and the optical density at 450 nm was measured. […] IC₅₀ values, calculated by using the GraphPad Prism software, were 0.69 μg/ml and 0.71 μg/ml for c214B2[IgG1] and c203B6[IgG1], respectively.
In general terms: ELISA stands for enzyme-linked immunosorbent assay.

Experiment [7] concerns the target human CD151 protein (human) (UniProt P48509). The experiment is described as follows: flow cytometry on PC3 cells.
Experiment [8] addresses T1, recombinant large extracellular loop …. Kind of experiment: competition ELISA on recombinant EC2; competitor murine 214B2 at 80 ng/ml, detected with anti-mouse IgG. The procedure:
as §1

Experiment [9] shares this target. Kind of experiment: cross-blocking ELISA on recombinant EC2; competitor murine 214B2. The procedure:
FIG. 18 illustrates the Cross blocking of the murine antibody […] by the chimeric […] and different variants of the humanized 214B2. The activity of the humanized variants of 214B2 (hz214B2) to cross block the parental antibody m214B2 was evaluated by ELISA using the recombinant extracellular loop 2 (EC2) of human antigen CD151. The activity of the humanized variants was compared to the chimeric 214B2.
The affinity of the humanized variants to the epitope of the parental antibody was evaluated by cross blocking the parental antibody with the humanized antibody. The parental antibody concentration was kept constant and the humanized antibody serial diluted. The chimeric antibody served as a positive control and as a reference in these experiments. The humanized antibodies were evaluated by there affinity in ELISA and flow cytometry assays. In the ELISA based assay the second extracellular domain (EC2) of the human CD151 was expressed recombinantly and purified by the six histidine tag. Purified EC2 protein was used to coated ELISA plates and binding of humanized anti-CD151 antibodies was measured indirectly by detecting the murine parental antibody with HRP conjugated anti-mouse IgG antibodies. Binding to CD151 of humanized anti-CD151 antibodies was evaluated by flow cytometry using the human prostate cancer cell line PC3. The affinity was determined by cross blocking the biotinylated parental murine anti-CD151 antibody. The biotinylated antibody was detected using fluorescein conjugated streptavidin. Affinity constant (Kd) was measured by BIACore analysis.

Chain of human CD151 protein (human) (P48509 whole entry): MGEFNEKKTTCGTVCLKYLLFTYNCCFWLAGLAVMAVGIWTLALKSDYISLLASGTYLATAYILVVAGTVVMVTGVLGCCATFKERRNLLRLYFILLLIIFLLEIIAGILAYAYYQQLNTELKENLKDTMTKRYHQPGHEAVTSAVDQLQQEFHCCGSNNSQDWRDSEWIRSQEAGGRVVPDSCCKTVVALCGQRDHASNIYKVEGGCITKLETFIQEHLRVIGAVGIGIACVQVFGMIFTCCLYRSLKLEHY

B1: murine antibody 203B6 (antibody, mouse IgG1, V domains shown)
VH: EVKLVESGGGLVQPGGSLKLSCAASGFTFSTYTMSWVRQTPEKRLEWVAYISSGGGTTYYPDTVKGRFTISRDNARNTLYLQMNSLKSEDTAMYYCATPRIGTGFAYWGQGTLVTVSA
VL: DIVLSQSPASLALSLGQRATISCRASASVEYYGTSLMHWYQQKPGQPPKLLIYEASNVESGVPARFSGSGSGTDFSLNIHPVEEDDLAIYFCQQSRKAPYTFGGGTKLEIK
On to B1, for which the MFI is 975 in [1]; 768 in [2]; 860 in experiment [3]; 675 in experiment [4]; 540 in experiment [5].

B2: chimeric antibody c203B6[IgG1] (antibody, V domains shown)
VH: EVKLVESGGGLVQPGGSLKLSCAASGFTFSTYTMSWVRQTPEKRLEWVAYISSGGGTTYYPDTVKGRFTISRDNARNTLYLQMNSLKSEDTAMYYCATPRIGTGFAYWGQGTLVTVSA
VL: DIVLSQSPASLALSLGQRATISCRASASVEYYGTSLMHWYQQKPGQPPKLLIYEASNVESGVPARFSGSGSGTDFSLNIHPVEEDDLAIYFCQQSRKAPYTFGGGTKLEIKR
notes: Mouse variable domains fused to human IgG1 / Ckappa constant domains
On to B2, for which the IC50 in experiment [6] came out at 0.71 µg/mL. Moreover, in [7], the antibody concentration at which the binding plateau was reached was 5 µg/mL.

B3: murine antibody 214B2 (antibody, mouse IgG1, V domains shown)
VH: QVQLQQPGSVLVRPGASVKLSCKASGYTFTSSSMHWAKQRPGQGLEWIGEIHPNSGNTNNNEKFKGKATLTVDTSSSTAYVDLSSLSSEDSAVYYCARARSFYYAMDCWGQGTSVTVSS
VL: NIVMTQSPKSMSMSVGERVTLSCKASENVGTYVSWYQQKPEQSPKLLIYGASNRYTGVPDRFTGSGSATDFTLTISSVQAEDLADYHCGQTYSFPYTFGGGTKLEIK
For the molecule B3, the MFI in [1] was determined as 1000; in [2] it was 849; in [3], 1330; in [4], 820; in [5], 748.

B4: chimeric antibody c214B2[IgG1] (antibody, V domains shown)
VH: QVQLQQPGSVLVRPGASVKLSCKASGYTFTSSSMHWAKQRPGQGLEWIGEIHPNSGNTNNNEKFKGKATLTVDTSSSTAYVDLSSLSSEDSAVYYCARARSFYYAMDCWGQGTSVTVSS
VL: NIVMTQSPKSMSMSVGERVTLSCKASENVGTYVSWYQQKPEQSPKLLIYGASNRYTGVPDRFTGSGSATDFTLTISSVQAEDLADYHCGQTYSFPYTFGGGTKLEIKR
notes: Mouse variable domains fused to human IgG1 / Ckappa constant domains; also called chimeric 214B2; chimeric 241B2
For the molecule B4, in experiment [8], the IC50 was found to be 0.69 µg/mL. For the same molecule, in [7], the antibody concentration at which the binding plateau was reached is 2.5 µg/mL.

B5: humanized antibody Hz214B2VLVar2VHVar3 (G1) (antibody, human IgG1, kappa, V domains shown)
VH: QVQLVQSGAEVKKPGASVKLSCKASGYTFTSSSMHWVRQAPGQGLEWMGEIHPNSGNTNNAQKFQGRATLTVDTSISTAYVELSRLRSDDTAVYYCARARSFYYAMDCWGQGTSVTVSS
VL: NIQMTQSPSSLSASVGDRVTITCRASENVGTYVNWYQQKPGKAPKLLIYGASNLQSGVPSRFSGSGSATDFTLTISSLQPEDFATYYCGQTYSFPYTFGQGTKLEIKR
notes: also called VH Var3 with VL Var2
As to B5, the binding result in [9] is listed as “binds”.

B6: humanized antibody Hz214B2VLVar3VHVar3 (G1) (antibody, human IgG1, kappa, V domains shown)
VH: QVQLVQSGAEVKKPGASVKLSCKASGYTFTSSSMHWVRQAPGQGLEWMGEIHPNSGNTNNAQKFQGRATLTVDTSISTAYVELSRLRSDDTAVYYCARARSFYYAMDCWGQGTSVTVSS
VL: NIVMTQSPSSLSASVGDRVTITCKASENVGTYVSWYQQKPGKAPKLLIYGASNLYSGVPSRFSGSGSATDFTLTISSLQPEDFATYHCGQTYSFPYTFGQGTKLEIKR
notes: also called Hz214B2VHVar3VLVar3; Hz214B2VHVar3VLVar3 (G1)
As for B6, the binding result in experiment [9] was “binds”.

B7: humanized 214B2, VL Var1 with VH Var2 (IgG1) (antibody, V domains shown)
VH: QVQLVQSGAEVKKPGASVKVSCKASGYTFTSSSMHWVRQAPGQGLEWMGEIHPNSGNTNNAQKFQGRVTLTVDTSISTAYMELSRLRSDDTAVYYCARARSFYYAMDCWGQGTSVTVSS
VL: DIQMTQSPSSLSASVGDRVTITCRASENVGTYLNWYQQKPGKAPKLLIYGASSLQSGVPSRFSGSGSGTDFTLTISSLQPEDFATYYCGQTYSFPYTFGQGTKLEIKR
notes: also called Hz214B2VLVar1 with Hz214B2VHVar2 (G1)
Consider B7, for which the binding result in experiment [9] is given as “binds”.

B8: humanized antibody Hz214B2VLVar3VHVar2 (G1) (antibody, human IgG1, kappa, V domains shown)
VH: QVQLVQSGAEVKKPGASVKVSCKASGYTFTSSSMHWVRQAPGQGLEWMGEIHPNSGNTNNAQKFQGRVTLTVDTSISTAYMELSRLRSDDTAVYYCARARSFYYAMDCWGQGTSVTVSS
VL: NIVMTQSPSSLSASVGDRVTITCKASENVGTYVSWYQQKPGKAPKLLIYGASNLYSGVPSRFSGSGSATDFTLTISSLQPEDFATYHCGQTYSFPYTFGQGTKLEIKR
notes: also called VH Var2 with VL Var3
In the case of B8, in [9], the binding result is given as “binds”.

B9: humanized antibody Hz214B2VLVar4VHVar4 (G1) (antibody, human IgG1, kappa, V domains shown)
VH: QVQLVQSGAEVKKPGASVKLSCKASGYTFTSSSMHWVRQAPGQGLEWMGEIHPNSGNTNNNEKFKGRATLTVDTSISTAYVELSRLRSDDTAVYYCARARSFYYAMDCWGQGTSVTVSS
VL: NIVMTQSPSSLSASVGDRVTITCKASENVGTYVSWYQQKPGKAPKLLIYGASNRYTGVPSRFSGSGSATDFTLTISSLQPEDFATYHCGQTYSFPYTFGQGTKLEIKR
notes: also called Hz214B2VHVar4VLVar4; Hz214B2VHVar4VLVar4 (G1)
On to B9, for which, in experiment [9], the binding result is “binds”.

B10: humanized 214B2, VL Var1 with VH Var3 (IgG1) (antibody, V domains shown)
VH: QVQLVQSGAEVKKPGASVKLSCKASGYTFTSSSMHWVRQAPGQGLEWMGEIHPNSGNTNNAQKFQGRATLTVDTSISTAYVELSRLRSDDTAVYYCARARSFYYAMDCWGQGTSVTVSS
VL: DIQMTQSPSSLSASVGDRVTITCRASENVGTYLNWYQQKPGKAPKLLIYGASSLQSGVPSRFSGSGSGTDFTLTISSLQPEDFATYYCGQTYSFPYTFGQGTKLEIKR
notes: also called Hz214B2VLVar1 with Hz214B2VHVar3 (G1)
On to B10, for which the binding result in [9] is “binds”.

B11: humanized antibody Hz214B2VLVar2VHVar2 (G1) (antibody, human IgG1, kappa, V domains shown)
VH: QVQLVQSGAEVKKPGASVKVSCKASGYTFTSSSMHWVRQAPGQGLEWMGEIHPNSGNTNNAQKFQGRVTLTVDTSISTAYMELSRLRSDDTAVYYCARARSFYYAMDCWGQGTSVTVSS
VL: NIQMTQSPSSLSASVGDRVTITCRASENVGTYVNWYQQKPGKAPKLLIYGASNLQSGVPSRFSGSGSATDFTLTISSLQPEDFATYYCGQTYSFPYTFGQGTKLEIKR
notes: also called VH Var2 with VL Var2
On to B11, for which the binding result in experiment [9] is recorded as “binds”.

What is called IC50 is the point on the concentration scale where inhibition reaches its midpoint.
